Test results as given in patent publication US20240247080A1, “GLP1/GIP/NPY2 RECEPTOR TRIPLE AGONISTS” (Boehringer Ingelheim International GmbH, priority 2022, published 2024).
Substitutions are numbered along the chain they refer to. Each block holds one binder with its values, some of them ahead of it. Starred links: 1 amine or outer side, 2 acyl side, 3 side chain; linkers in the order of their positions; H or OH if unused. Non-standard residues stand in square brackets, D forms with d. Groups on a side chain read outwards from the residue. No end group written: not given here. *: point of attachment. C20 diacid = O=C(O)CCCCCCCCCCCCCCCCCCC(=O)*; C18 diacid = O=C(O)CCCCCCCCCCCCCCCCC(=O)*; γGlu = O=C(O)[C@H](CCC(=O)[*:2])N[*:1]; AEEA = NCCOCCOCC(=O)O; Aib = CC(C)(N)C(=O)O

Columns and labels:
Experiment in all cases: cell-based or functional assay
[1] = biological target: T1, human neuropeptide Y2 receptor (human, UniProt P49146 1-381)
T1 sequence (looked up): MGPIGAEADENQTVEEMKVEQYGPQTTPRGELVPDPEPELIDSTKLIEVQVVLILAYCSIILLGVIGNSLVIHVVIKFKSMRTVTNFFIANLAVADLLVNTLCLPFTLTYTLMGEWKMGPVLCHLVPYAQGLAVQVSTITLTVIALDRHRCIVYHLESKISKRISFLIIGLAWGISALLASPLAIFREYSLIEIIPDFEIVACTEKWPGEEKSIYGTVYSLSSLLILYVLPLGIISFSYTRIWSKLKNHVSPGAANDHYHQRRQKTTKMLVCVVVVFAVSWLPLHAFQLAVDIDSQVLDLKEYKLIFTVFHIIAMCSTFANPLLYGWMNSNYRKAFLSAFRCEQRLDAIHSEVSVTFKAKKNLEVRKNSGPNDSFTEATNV

human GIP receptor = biological target: T2, human GIP receptor (human, UniProt P48546 22-466)
T2 sequence (looked up): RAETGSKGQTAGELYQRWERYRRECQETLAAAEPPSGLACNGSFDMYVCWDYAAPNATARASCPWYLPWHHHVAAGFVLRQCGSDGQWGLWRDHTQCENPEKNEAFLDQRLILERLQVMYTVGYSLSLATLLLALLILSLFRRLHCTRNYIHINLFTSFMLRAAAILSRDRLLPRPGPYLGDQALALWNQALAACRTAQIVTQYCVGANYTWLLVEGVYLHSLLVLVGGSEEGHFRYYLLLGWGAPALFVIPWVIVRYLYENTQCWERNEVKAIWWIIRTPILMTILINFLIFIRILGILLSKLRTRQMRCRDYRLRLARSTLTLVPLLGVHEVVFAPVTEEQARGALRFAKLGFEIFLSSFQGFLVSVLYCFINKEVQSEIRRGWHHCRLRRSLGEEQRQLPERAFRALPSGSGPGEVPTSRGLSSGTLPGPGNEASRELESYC

human GLP-1 receptor = human GLP-1 receptor (human, UniProt P43220 24-463)
GIP receptor = biological target: T3, GIP receptor (human (printed as hGIPR), UniProt P48546 22-466)
T3 sequence (looked up): T2 sequence (looked up)

NPY2 receptor = biological target: T4, NPY2 receptor (human (printed as hNPY2R), UniProt P49146 1-381)
T4 sequence (looked up): T1 sequence (looked up)

GLP-1 receptor = GLP-1 receptor (human (printed as hGLP1R), UniProt P43220 24-463)

B2: Compound 167 (peptide)
peptide: YXEGTFTSDYSIXLEKQAQXAFVQWLIKGGPSSGASLRHYYNWLTRQRY
modifications: Aib at 2, 13, 20; K28 side chain: C18DA-gGlu-gGlu-gGlu-gGlu-gGlu-OEG-OEG; C-terminal NH2
- EC50 CreLuc hNPY2R 0.5% hP [1]: 10.5 nM
- EC50 CreLuc hNPY2R 100% hP [1]: 26.5 nM
- EC50 CreLuc hGIPR 0.5% hP (human GIP receptor): 0.14 nM
- EC50 CreLuc hGIPR 100% hP (human GIP receptor): 0.49 nM
- EC50 CreLuc hGLP1R 0.5% hP (human GLP-1 receptor): 0.04 nM
- EC50 CreLuc hGLP1R 100% hP (human GLP-1 receptor): 0.82 nM

B3: Compound 168 (peptide)
peptide: B2 peptide with Q24E, S32R
modifications: Aib at 2, 13, 20; K28 side chain: C20DA-gGlu-gGlu-gGlu-gGlu-gGlu-gGlu-eLys; C-terminal NH2
- EC50 CreLuc hNPY2R 0.5% hP [1]: 6.05 nM
- EC50 CreLuc hNPY2R 100% hP [1]: 36.1 nM
- EC50 CreLuc hGIPR 0.5% hP (human GIP receptor): 0.2 nM
- EC50 CreLuc hGIPR 100% hP (human GIP receptor): 1.5 nM
- EC50 CreLuc hGLP1R 0.5% hP (human GLP-1 receptor): 0.11 nM
- EC50 CreLuc hGLP1R 100% hP (human GLP-1 receptor): 3.59 nM

Binder: Y[Aib]EGTFTSDYSI[Aib]LEKQAE[Aib]AFVQWLIKGGPSEGASLRHYYNWLTRQRY-NH2 (not fully specified (residue 28); also: TFA salt) [Compound 174]
- EC50 hGIPR 0.5% hP (CreLuc) (GIP receptor): 0.17 nM
- EC50 hGIPR 100% hP (CreLuc) (GIP receptor): 1.26 nM
- EC50 hNPY2R 0.5% hP (CreLuc) (NPY2 receptor): 11.5 nM
- EC50 hNPY2R 100% hP (CreLuc) (NPY2 receptor): 39.2 nM
- EC50 hGLP1R 0.5% hP (CreLuc) (GLP-1 receptor): 0.22 nM
- EC50 hGLP1R 100% hP (CreLuc) (GLP-1 receptor): 7.71 nM

Binder: Y[Aib]EGTFTSDYSI[Aib]LEKQAQ[Aib]AFVEWLIKGGPSSPASLRHYYNWLTRQRY-NH2 (not fully specified (residue 28); also: TFA salt) [Compound 178]
- EC50 hGIPR 0.5% hP (CreLuc) (GIP receptor): 0.12 nM
- EC50 hGIPR 100% hP (CreLuc) (GIP receptor): 5.86 nM
- EC50 hNPY2R 0.5% hP (CreLuc) (NPY2 receptor): 13.3 nM
- EC50 hNPY2R 100% hP (CreLuc) (NPY2 receptor): 115 nM
- EC50 hGLP1R 0.5% hP (CreLuc) (GLP-1 receptor): 0.08 nM
- EC50 hGLP1R 100% hP (CreLuc) (GLP-1 receptor): 5.51 nM

Results, then the binder that gave them:

- EC50 CreLuc hNPY2R 0.5% hP [1]: 25.8 nM
- EC50 CreLuc hNPY2R 100% hP [1]: 92.6 nM
- EC50 CreLuc hGIPR 0.5% hP (human GIP receptor): 0.25 nM
- EC50 CreLuc hGIPR 100% hP (human GIP receptor): 1.61 nM
- EC50 CreLuc hGLP1R 0.5% hP (human GLP-1 receptor): 0.2 nM
- EC50 CreLuc hGLP1R 100% hP (human GLP-1 receptor): 8.2 nM
B1: Compound 162 (peptide)
peptide: B2 peptide with S32E, S33E
modifications: Aib at 2, 13, 20; K28 side chain: C18DA-gGlu-gGlu-gGlu-gGlu-gGlu-AHX; C-terminal NH2

- EC50 CreLuc hNPY2R 0.5% hP [1]: 8.91 nM
- EC50 CreLuc hNPY2R 100% hP [1]: 36 nM
- EC50 CreLuc hGIPR 0.5% hP (human GIP receptor): 0.33 nM
- EC50 CreLuc hGIPR 100% hP (human GIP receptor): 1.88 nM
- EC50 CreLuc hGLP1R 0.5% hP (human GLP-1 receptor): 0.13 nM
- EC50 CreLuc hGLP1R 100% hP (human GLP-1 receptor): 4.81 nM
Binder: Y[Aib]EGTFTSDYSI[Aib]LEKQAQ[Aib]AFVQWLIK([AEEA-AEEA-γGlu-γGlu-Glu-γGlu-C20 diacid])GGPSEPASLRHYYNWLTRQRY-NH2 [Compound 165]

- EC50 CreLuc hNPY2R 0.5% hP [1]: 21.3 nM
- EC50 CreLuc hNPY2R 100% hP [1]: 55.2 nM
- EC50 CreLuc hGIPR 0.5% hP (human GIP receptor): 0.26 nM
- EC50 CreLuc hGIPR 100% hP (human GIP receptor): 0.87 nM
- EC50 CreLuc hGLP1R 0.5% hP (human GLP-1 receptor): 0.1 nM
- EC50 CreLuc hGLP1R 100% hP (human GLP-1 receptor): 4.72 nM
Binder: Y[Aib]EGTFTSDYSI[Aib]LEKQAQ[Aib]AFVEWLIK([AEEA-AEEA-γGlu-γGlu-γGlu-γGlu-C18 diacid])GGPESGASLRHYYNWLTRQRY-NH2 [Compound 163]

- EC50 CreLuc hNPY2R 0.5% hP [1]: 12.5 nM
- EC50 CreLuc hNPY2R 100% hP [1]: 57.9 nM
- EC50 CreLuc hGIPR 0.5% hP (human GIP receptor): 0.08 nM
- EC50 CreLuc hGIPR 100% hP (human GIP receptor): 0.64 nM
- EC50 CreLuc hGLP1R 0.5% hP (human GLP-1 receptor): 0.07 nM
- EC50 CreLuc hGLP1R 100% hP (human GLP-1 receptor): 4.24 nM
Binder: Y[Aib]EGTFTSDYSI[Aib]LEKQAQ[Aib]AFVEWLIK([AEEA-AEEA-γGlu-γGlu-γGlu-C18 diacid])GGPESGASLRHYYNWLTRQRY-NH2 [Compound 166]

- EC50 CreLuc hNPY2R 0.5% hP [1]: 8.23 nM
- EC50 CreLuc hNPY2R 100% hP [1]: 21.9 nM
- EC50 CreLuc hGIPR 0.5% hP (human GIP receptor): 0.33 nM
- EC50 CreLuc hGIPR 100% hP (human GIP receptor): 0.91 nM
- EC50 CreLuc hGLP1R 0.5% hP (human GLP-1 receptor): 0.3 nM
- EC50 CreLuc hGLP1R 100% hP (human GLP-1 receptor): 6.31 nM
Binder: Y[Aib]EGTFTSDYSI[Aib]LEKQAQ[Aib]EFVQWLIK([AEEA-AEEA-γGlu-γGlu-γGlu-C18 diacid])GGPSEGASLRHYYNWLTRQRY-NH2 [Compound 160]

- EC50 CreLuc hNPY2R 0.5% hP [1]: 11.5 nM
- EC50 CreLuc hNPY2R 100% hP [1]: 41.7 nM
- EC50 CreLuc hGIPR 0.5% hP (human GIP receptor): 0.14 nM
- EC50 CreLuc hGIPR 100% hP (human GIP receptor): 1.23 nM
- EC50 CreLuc hGLP1R 0.5% hP (human GLP-1 receptor): 0.21 nM
- EC50 CreLuc hGLP1R 100% hP (human GLP-1 receptor): 8.06 nM
Binder: Y[Aib]EGTFTSDYSI[Aib]LEKQAQ[Aib]AFVEWLIK([AEEA-AEEA-γGlu-γGlu-γGlu-γGlu-C18 diacid])GGPEEPASLRHYYNWLTRQRY-NH2 [Compound 161]
